The labels stand for the following.
B1: C05 Fab variant VVDAGW, in supernatant of transfected 293T cells (Fab, V domains shown)
VH: QVQLQESGGGLVQPGESLRLSCVGSGSSFGESTLSYYAVSWVRQAPGKGLEWLSIINAGGGDIDYADSVEGRFTISRDNSKETLYLQMTNLRVEDTGVYYCAKHMSMQQVVDAGWERADLVGDAFDVWGQGTMVTVSS
VL: DIQLTQSPSSLSASVGDRVTLTCQASQDIRKFLNWYQQKPGKGPKLLIYDASNLQRGVPSRFSGGGSGTDFTLIISSLQPEDVGTYYCQQYDGLPFTFGGGTKVVIK
B2: C05 Fab variant VVEAGW, in supernatant of transfected 293T cells (Fab, V domains shown)
VH: QVQLQESGGGLVQPGESLRLSCVGSGSSFGESTLSYYAVSWVRQAPGKGLEWLSIINAGGGDIDYADSVEGRFTISRDNSKETLYLQMTNLRVEDTGVYYCAKHMSMQQVVEAGWERADLVGDAFDVWGQGTMVTVSS
VL: DIQLTQSPSSLSASVGDRVTLTCQASQDIRKFLNWYQQKPGKGPKLLIYDASNLQRGVPSRFSGGGSGTDFTLIISSLQPEDVGTYYCQQYDGLPFTFGGGTKVVIK
B3: C05 Fab variant VVDSGW, in supernatant of transfected 293T cells (Fab, V domains shown)
VH: QVQLQESGGGLVQPGESLRLSCVGSGSSFGESTLSYYAVSWVRQAPGKGLEWLSIINAGGGDIDYADSVEGRFTISRDNSKETLYLQMTNLRVEDTGVYYCAKHMSMQQVVDSGWERADLVGDAFDVWGQGTMVTVSS
VL: DIQLTQSPSSLSASVGDRVTLTCQASQDIRKFLNWYQQKPGKGPKLLIYDASNLQRGVPSRFSGGGSGTDFTLIISSLQPEDVGTYYCQQYDGLPFTFGGGTKVVIK
notes: not shown: His6, C-terminal, kept
B4: C05 Fab variant VEEAGW, in supernatant of transfected 293T cells (Fab, V domains shown)
VH: QVQLQESGGGLVQPGESLRLSCVGSGSSFGESTLSYYAVSWVRQAPGKGLEWLSIINAGGGDIDYADSVEGRFTISRDNSKETLYLQMTNLRVEDTGVYYCAKHMSMQQVEEAGWERADLVGDAFDVWGQGTMVTVSS
VL: DIQLTQSPSSLSASVGDRVTLTCQASQDIRKFLNWYQQKPGKGPKLLIYDASNLQRGVPSRFSGGGSGTDFTLIISSLQPEDVGTYYCQQYDGLPFTFGGGTKVVIK
notes: as for B3
B5: C05 Fab variant YDPGGW displayed on yeast (Fab, V domains shown)
VH: QVQLQESGGGLVQPGESLRLSCVGSGSSFGESTLSYYAVSWVRQAPGKGLEWLSIINAGGGDIDYADSVEGRFTISRDNSKETLYLQMTNLRVEDTGVYYCAKHMSMQQYDPGGWERADLVGDAFDVWGQGTMVTVSS
VL: DIQLTQSPSSLSASVGDRVTLTCQASQDIRKFLNWYQQKPGKGPKLLIYDASNLQRGVPSRFSGGGSGTDFTLIISSLQPEDVGTYYCQQYDGLPFTFGGGTKVVIK
B6: C05 Fab variant VVGSGW displayed on yeast (Fab, V domains shown)
VH: QVQLQESGGGLVQPGESLRLSCVGSGSSFGESTLSYYAVSWVRQAPGKGLEWLSIINAGGGDIDYADSVEGRFTISRDNSKETLYLQMTNLRVEDTGVYYCAKHMSMQQVVGSGWERADLVGDAFDVWGQGTMVTVSS
VL: DIQLTQSPSSLSASVGDRVTLTCQASQDIRKFLNWYQQKPGKGPKLLIYDASNLQRGVPSRFSGGGSGTDFTLIISSLQPEDVGTYYCQQYDGLPFTFGGGTKVVIK
B7: C05 Fab variant VPGAGW displayed on yeast (Fab, V domains shown)
VH: QVQLQESGGGLVQPGESLRLSCVGSGSSFGESTLSYYAVSWVRQAPGKGLEWLSIINAGGGDIDYADSVEGRFTISRDNSKETLYLQMTNLRVEDTGVYYCAKHMSMQQVPGAGWERADLVGDAFDVWGQGTMVTVSS
VL: DIQLTQSPSSLSASVGDRVTLTCQASQDIRKFLNWYQQKPGKGPKLLIYDASNLQRGVPSRFSGGGSGTDFTLIISSLQPEDVGTYYCQQYDGLPFTFGGGTKVVIK
B8: C05 Fab variant WYVHLW displayed on yeast (Fab, V domains shown)
VH: QVQLQESGGGLVQPGESLRLSCVGSGSSFGESTLSYYAVSWVRQAPGKGLEWLSIINAGGGDIDYADSVEGRFTISRDNSKETLYLQMTNLRVEDTGVYYCAKHMSMQQWYVHLWERADLVGDAFDVWGQGTMVTVSS
VL: DIQLTQSPSSLSASVGDRVTLTCQASQDIRKFLNWYQQKPGKGPKLLIYDASNLQRGVPSRFSGGGSGTDFTLIISSLQPEDVGTYYCQQYDGLPFTFGGGTKVVIK
B9: C05 Fab variant YEPAGW displayed on yeast (Fab, V domains shown)
VH: QVQLQESGGGLVQPGESLRLSCVGSGSSFGESTLSYYAVSWVRQAPGKGLEWLSIINAGGGDIDYADSVEGRFTISRDNSKETLYLQMTNLRVEDTGVYYCAKHMSMQQYEPAGWERADLVGDAFDVWGQGTMVTVSS
VL: DIQLTQSPSSLSASVGDRVTLTCQASQDIRKFLNWYQQKPGKGPKLLIYDASNLQRGVPSRFSGGGSGTDFTLIISSLQPEDVGTYYCQQYDGLPFTFGGGTKVVIK
B10: C05 Fab variant VVDSGW displayed on yeast (Fab, V domains shown)
VH: QVQLQESGGGLVQPGESLRLSCVGSGSSFGESTLSYYAVSWVRQAPGKGLEWLSIINAGGGDIDYADSVEGRFTISRDNSKETLYLQMTNLRVEDTGVYYCAKHMSMQQVVDSGWERADLVGDAFDVWGQGTMVTVSS
VL: DIQLTQSPSSLSASVGDRVTLTCQASQDIRKFLNWYQQKPGKGPKLLIYDASNLQRGVPSRFSGGGSGTDFTLIISSLQPEDVGTYYCQQYDGLPFTFGGGTKVVIK
B11: C05 Fab variant LPGGGW displayed on yeast (Fab, V domains shown)
VH: QVQLQESGGGLVQPGESLRLSCVGSGSSFGESTLSYYAVSWVRQAPGKGLEWLSIINAGGGDIDYADSVEGRFTISRDNSKETLYLQMTNLRVEDTGVYYCAKHMSMQQLPGGGWERADLVGDAFDVWGQGTMVTVSS
VL: DIQLTQSPSSLSASVGDRVTLTCQASQDIRKFLNWYQQKPGKGPKLLIYDASNLQRGVPSRFSGGGSGTDFTLIISSLQPEDVGTYYCQQYDGLPFTFGGGTKVVIK
B12: C05 Fab variant VASAGW displayed on yeast (Fab, V domains shown)
VH: QVQLQESGGGLVQPGESLRLSCVGSGSSFGESTLSYYAVSWVRQAPGKGLEWLSIINAGGGDIDYADSVEGRFTISRDNSKETLYLQMTNLRVEDTGVYYCAKHMSMQQVASAGWERADLVGDAFDVWGQGTMVTVSS
VL: DIQLTQSPSSLSASVGDRVTLTCQASQDIRKFLNWYQQKPGKGPKLLIYDASNLQRGVPSRFSGGGSGTDFTLIISSLQPEDVGTYYCQQYDGLPFTFGGGTKVVIK
B13: C05 Fab variant WPEIGF displayed on yeast (Fab, V domains shown)
VH: QVQLQESGGGLVQPGESLRLSCVGSGSSFGESTLSYYAVSWVRQAPGKGLEWLSIINAGGGDIDYADSVEGRFTISRDNSKETLYLQMTNLRVEDTGVYYCAKHMSMQQWPEIGFERADLVGDAFDVWGQGTMVTVSS
VL: DIQLTQSPSSLSASVGDRVTLTCQASQDIRKFLNWYQQKPGKGPKLLIYDASNLQRGVPSRFSGGGSGTDFTLIISSLQPEDVGTYYCQQYDGLPFTFGGGTKVVIK
B14: C05 Fab variant LPSSGW displayed on yeast (Fab, V domains shown)
VH: QVQLQESGGGLVQPGESLRLSCVGSGSSFGESTLSYYAVSWVRQAPGKGLEWLSIINAGGGDIDYADSVEGRFTISRDNSKETLYLQMTNLRVEDTGVYYCAKHMSMQQLPSSGWERADLVGDAFDVWGQGTMVTVSS
VL: DIQLTQSPSSLSASVGDRVTLTCQASQDIRKFLNWYQQKPGKGPKLLIYDASNLQRGVPSRFSGGGSGTDFTLIISSLQPEDVGTYYCQQYDGLPFTFGGGTKVVIK
B15: C05 Fab variant VATSGW displayed on yeast (Fab, V domains shown)
VH: QVQLQESGGGLVQPGESLRLSCVGSGSSFGESTLSYYAVSWVRQAPGKGLEWLSIINAGGGDIDYADSVEGRFTISRDNSKETLYLQMTNLRVEDTGVYYCAKHMSMQQVATSGWERADLVGDAFDVWGQGTMVTVSS
VL: DIQLTQSPSSLSASVGDRVTLTCQASQDIRKFLNWYQQKPGKGPKLLIYDASNLQRGVPSRFSGGGSGTDFTLIISSLQPEDVGTYYCQQYDGLPFTFGGGTKVVIK
B16: C05 Fab variant VASSGW displayed on yeast (Fab, V domains shown)
VH: QVQLQESGGGLVQPGESLRLSCVGSGSSFGESTLSYYAVSWVRQAPGKGLEWLSIINAGGGDIDYADSVEGRFTISRDNSKETLYLQMTNLRVEDTGVYYCAKHMSMQQVASSGWERADLVGDAFDVWGQGTMVTVSS
VL: DIQLTQSPSSLSASVGDRVTLTCQASQDIRKFLNWYQQKPGKGPKLLIYDASNLQRGVPSRFSGGGSGTDFTLIISSLQPEDVGTYYCQQYDGLPFTFGGGTKVVIK
B17: C05 Fab variant IPGSGW displayed on yeast (Fab, V domains shown)
VH: QVQLQESGGGLVQPGESLRLSCVGSGSSFGESTLSYYAVSWVRQAPGKGLEWLSIINAGGGDIDYADSVEGRFTISRDNSKETLYLQMTNLRVEDTGVYYCAKHMSMQQIPGSGWERADLVGDAFDVWGQGTMVTVSS
VL: DIQLTQSPSSLSASVGDRVTLTCQASQDIRKFLNWYQQKPGKGPKLLIYDASNLQRGVPSRFSGGGSGTDFTLIISSLQPEDVGTYYCQQYDGLPFTFGGGTKVVIK

17 molecules from paper PMC5440694 (Nature Communications, 2017) can be followed below.

The first assay addresses T1, biotinylated HA0 ectodomain of A/Perth/16/2009 (H3N2) (Influenza A virus A/Perth/16/2009 (H3N2), UniProt C6KNH7, strain, biotin on the BirA biotinylation site). Put plainly: BLI. The following applies: one partner purified.
As to B1, the binding result is recorded as “binds”.
Same read-out and setting: in the case of B2 it was “binds”; in that of B3, “binds”; in that of B4, “binds”.

Another assay concerns the target T1, biotinylated HA0 ectodomain of …. Put plainly: yeast display selection (FACS) with next-generation sequencing. The following applies: one partner purified.
Consider B5, for which the binding result was “binds”.
Same read-out and setting: the entry for B6 is “binds”.
Still for that read-out and setting: in the case of B7 it was “binds”; in that of B8, “binds”; in that of B9, “binds”.
On the same count and under the same terms, the entry for B10 is “binds”.
Consider B11, for which the binding result is recorded as “binds”.
Turning to B12, the binding result is given as “binds”.

The target in another assay is biotinylated HA0 ectodomain of A/Solomon Islands/3/2006 (H1N1) (Influenza A virus A/Solomon …, UniProt A7Y8I1, strain, biotin on the BirA biotinylation site). Described as above. The following applies: one partner purified.
As to B13, the binding result was “binds”.
Same read-out and setting: in the case of B6 it was “binds”; in that of B7, “binds”.
Same read-out and setting: the entry for B14 is “binds”; for B15 it is “binds”; for B16 it is “binds”.
On to B17, for which the binding result is “binds”.
